{"source": "patent US20110223155A1", "key": {"[1]": {"target": "Notch3-LD/Fc fusion protein (Notch3 LIN12/dimerization domain fused to human gamma 1 Fc) (human) (UniProt Q9UM47)", "test": "ELISA on coated Notch3-LD/Fc"}, "[2]": {"target": "human Notch1-LD/Fc (LIN/dimerization domain fused to Fc region at the carboxyl terminus) (human) (UniProt P46531)", "sequence (P46531 1440-1735 limits assumed, form in doubt)": "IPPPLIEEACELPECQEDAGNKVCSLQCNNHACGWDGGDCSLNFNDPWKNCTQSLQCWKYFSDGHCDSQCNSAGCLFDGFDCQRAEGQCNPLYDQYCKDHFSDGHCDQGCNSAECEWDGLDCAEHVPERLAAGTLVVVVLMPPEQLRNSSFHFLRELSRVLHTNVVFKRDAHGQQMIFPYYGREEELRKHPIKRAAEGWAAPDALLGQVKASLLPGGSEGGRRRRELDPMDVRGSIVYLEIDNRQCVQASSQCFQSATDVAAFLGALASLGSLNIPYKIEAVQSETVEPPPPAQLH", "test": "ELISA on coated Notch1-LD/Fc"}, "[3]": {"target": "full-length human Notch3 receptor expressed on cells (human) (UniProt Q9UM47)", "test": "cell-based or functional assay"}}}
{"substance": "Control IgG1 (irrelevant IgG1 monoclonal antibody)", "values": [{"measurement": "ELISA OD reading (mean)", "setting": "[1]", "value": 0.064, "unit": "OD 450 nm"}, {"measurement": "ELISA OD reading (mean)", "setting": "[2]", "value": 0.066, "unit": "OD 450 nm"}]}
{"substance": "human Jagged2 expressed on 293 cells (Jagged2/293F) (from UniProt Q9Y219 24-1238) (ligand)", "values": [{"measurement": "luciferase activity (CBF1-Luc reporter) of NC85 cells cocultured with Jagged2/293F, against coculture with PCDNA 3.1/293T", "setting": "[3]", "value": "2 to 4", "unit": "fold"}]}
{"substance": "human Jagged1 expressed on 293T cells (Jagged1/293T) (from UniProt P78504 34-1218) (ligand)", "values": [{"measurement": "luciferase activity (CBF1-Luc reporter) of NC85 cells cocultured with Jagged1/293T, against coculture with PCDNA 3.1/293T", "setting": "[3]", "value": "2 to 4", "unit": "fold"}]}
